Legend:
tnr6b_human TNRC6B = tnr6b_human TNRC6B (UniProt Q9UPQ9)
tnr6c_human TNRC6C = tnr6c_human TNRC6C (UniProt Q9HCJ0)
tnr6b_mouse Tnrc6b = tnr6b_mouse Tnrc6b (UniProt Q8BKI2)

Measured: effect of a mutation on the interaction

Sequence of Protein argonaute-2 (Homo sapiens), Q9UKV8 F470V;F505V (Q9UKV8 whole entry F470V/F505V): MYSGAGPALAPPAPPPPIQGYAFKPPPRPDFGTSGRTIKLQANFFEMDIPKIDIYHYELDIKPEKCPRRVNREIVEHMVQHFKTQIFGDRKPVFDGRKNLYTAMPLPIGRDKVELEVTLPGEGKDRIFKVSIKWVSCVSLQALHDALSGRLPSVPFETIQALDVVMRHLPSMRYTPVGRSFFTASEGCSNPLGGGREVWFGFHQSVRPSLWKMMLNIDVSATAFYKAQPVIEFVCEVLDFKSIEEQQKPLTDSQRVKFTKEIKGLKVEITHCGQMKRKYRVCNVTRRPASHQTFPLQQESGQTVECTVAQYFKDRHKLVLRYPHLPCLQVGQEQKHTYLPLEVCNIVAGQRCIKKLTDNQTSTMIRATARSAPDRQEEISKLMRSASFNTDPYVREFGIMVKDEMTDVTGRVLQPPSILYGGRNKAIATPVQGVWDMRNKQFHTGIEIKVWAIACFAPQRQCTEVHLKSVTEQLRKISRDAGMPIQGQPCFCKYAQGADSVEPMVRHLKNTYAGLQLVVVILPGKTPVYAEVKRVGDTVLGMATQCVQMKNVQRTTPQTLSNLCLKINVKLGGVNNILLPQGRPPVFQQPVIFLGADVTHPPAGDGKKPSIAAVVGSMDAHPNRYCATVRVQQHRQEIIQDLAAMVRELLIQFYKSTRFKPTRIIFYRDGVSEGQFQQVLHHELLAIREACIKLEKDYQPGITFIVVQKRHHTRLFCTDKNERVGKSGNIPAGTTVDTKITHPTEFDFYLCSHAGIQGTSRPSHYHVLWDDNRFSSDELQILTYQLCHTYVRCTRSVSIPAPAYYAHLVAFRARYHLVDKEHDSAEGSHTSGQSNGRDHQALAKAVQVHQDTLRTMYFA
Sequence of tnr6b_human TNRC6B (Q9UPQ9 whole entry): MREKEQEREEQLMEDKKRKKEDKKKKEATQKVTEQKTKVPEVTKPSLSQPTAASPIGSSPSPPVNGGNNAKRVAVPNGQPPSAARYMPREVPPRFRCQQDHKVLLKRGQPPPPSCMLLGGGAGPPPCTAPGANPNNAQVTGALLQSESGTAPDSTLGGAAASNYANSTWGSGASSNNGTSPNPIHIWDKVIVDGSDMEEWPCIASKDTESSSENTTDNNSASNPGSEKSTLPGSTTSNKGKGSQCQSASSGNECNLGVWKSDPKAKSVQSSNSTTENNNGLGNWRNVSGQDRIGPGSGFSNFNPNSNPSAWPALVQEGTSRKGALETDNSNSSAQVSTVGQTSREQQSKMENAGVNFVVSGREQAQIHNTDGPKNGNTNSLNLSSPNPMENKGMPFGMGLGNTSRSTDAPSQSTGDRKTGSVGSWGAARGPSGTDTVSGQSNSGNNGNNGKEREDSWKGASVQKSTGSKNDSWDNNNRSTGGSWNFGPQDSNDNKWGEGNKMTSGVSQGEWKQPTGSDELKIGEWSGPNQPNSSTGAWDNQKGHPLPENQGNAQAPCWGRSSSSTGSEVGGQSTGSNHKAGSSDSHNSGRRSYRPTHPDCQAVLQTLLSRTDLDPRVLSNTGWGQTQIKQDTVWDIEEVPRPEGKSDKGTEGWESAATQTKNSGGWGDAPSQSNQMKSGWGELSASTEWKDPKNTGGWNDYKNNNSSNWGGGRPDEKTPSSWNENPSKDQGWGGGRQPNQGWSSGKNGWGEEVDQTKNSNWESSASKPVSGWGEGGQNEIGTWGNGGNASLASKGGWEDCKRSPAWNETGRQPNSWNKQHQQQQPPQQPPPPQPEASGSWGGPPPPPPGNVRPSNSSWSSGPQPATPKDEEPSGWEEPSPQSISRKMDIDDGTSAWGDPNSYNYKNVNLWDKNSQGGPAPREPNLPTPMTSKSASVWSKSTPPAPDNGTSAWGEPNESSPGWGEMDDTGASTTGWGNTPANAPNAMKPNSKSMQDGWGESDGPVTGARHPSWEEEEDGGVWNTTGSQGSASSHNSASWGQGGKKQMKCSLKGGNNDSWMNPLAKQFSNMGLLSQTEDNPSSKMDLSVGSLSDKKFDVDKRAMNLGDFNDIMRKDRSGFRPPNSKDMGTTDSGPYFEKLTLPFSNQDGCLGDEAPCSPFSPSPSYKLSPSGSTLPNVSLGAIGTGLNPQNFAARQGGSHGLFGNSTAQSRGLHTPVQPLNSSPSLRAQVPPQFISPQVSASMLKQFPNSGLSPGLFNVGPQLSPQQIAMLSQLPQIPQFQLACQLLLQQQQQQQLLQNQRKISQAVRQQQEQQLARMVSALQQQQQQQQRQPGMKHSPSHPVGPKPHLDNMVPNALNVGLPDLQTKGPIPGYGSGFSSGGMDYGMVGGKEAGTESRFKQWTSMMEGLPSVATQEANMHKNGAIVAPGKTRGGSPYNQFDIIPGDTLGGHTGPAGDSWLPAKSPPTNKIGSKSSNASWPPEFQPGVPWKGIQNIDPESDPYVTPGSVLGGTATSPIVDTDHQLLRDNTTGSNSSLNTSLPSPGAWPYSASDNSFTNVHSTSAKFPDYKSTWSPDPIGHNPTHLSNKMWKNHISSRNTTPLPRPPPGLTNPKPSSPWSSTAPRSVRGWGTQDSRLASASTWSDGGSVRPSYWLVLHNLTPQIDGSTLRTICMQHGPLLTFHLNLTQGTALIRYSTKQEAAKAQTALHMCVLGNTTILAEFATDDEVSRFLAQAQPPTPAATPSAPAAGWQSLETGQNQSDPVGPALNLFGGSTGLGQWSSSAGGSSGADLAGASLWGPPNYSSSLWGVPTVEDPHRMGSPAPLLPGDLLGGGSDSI
Sequence of tnr6b_mouse Tnrc6b (Q8BKI2 whole entry): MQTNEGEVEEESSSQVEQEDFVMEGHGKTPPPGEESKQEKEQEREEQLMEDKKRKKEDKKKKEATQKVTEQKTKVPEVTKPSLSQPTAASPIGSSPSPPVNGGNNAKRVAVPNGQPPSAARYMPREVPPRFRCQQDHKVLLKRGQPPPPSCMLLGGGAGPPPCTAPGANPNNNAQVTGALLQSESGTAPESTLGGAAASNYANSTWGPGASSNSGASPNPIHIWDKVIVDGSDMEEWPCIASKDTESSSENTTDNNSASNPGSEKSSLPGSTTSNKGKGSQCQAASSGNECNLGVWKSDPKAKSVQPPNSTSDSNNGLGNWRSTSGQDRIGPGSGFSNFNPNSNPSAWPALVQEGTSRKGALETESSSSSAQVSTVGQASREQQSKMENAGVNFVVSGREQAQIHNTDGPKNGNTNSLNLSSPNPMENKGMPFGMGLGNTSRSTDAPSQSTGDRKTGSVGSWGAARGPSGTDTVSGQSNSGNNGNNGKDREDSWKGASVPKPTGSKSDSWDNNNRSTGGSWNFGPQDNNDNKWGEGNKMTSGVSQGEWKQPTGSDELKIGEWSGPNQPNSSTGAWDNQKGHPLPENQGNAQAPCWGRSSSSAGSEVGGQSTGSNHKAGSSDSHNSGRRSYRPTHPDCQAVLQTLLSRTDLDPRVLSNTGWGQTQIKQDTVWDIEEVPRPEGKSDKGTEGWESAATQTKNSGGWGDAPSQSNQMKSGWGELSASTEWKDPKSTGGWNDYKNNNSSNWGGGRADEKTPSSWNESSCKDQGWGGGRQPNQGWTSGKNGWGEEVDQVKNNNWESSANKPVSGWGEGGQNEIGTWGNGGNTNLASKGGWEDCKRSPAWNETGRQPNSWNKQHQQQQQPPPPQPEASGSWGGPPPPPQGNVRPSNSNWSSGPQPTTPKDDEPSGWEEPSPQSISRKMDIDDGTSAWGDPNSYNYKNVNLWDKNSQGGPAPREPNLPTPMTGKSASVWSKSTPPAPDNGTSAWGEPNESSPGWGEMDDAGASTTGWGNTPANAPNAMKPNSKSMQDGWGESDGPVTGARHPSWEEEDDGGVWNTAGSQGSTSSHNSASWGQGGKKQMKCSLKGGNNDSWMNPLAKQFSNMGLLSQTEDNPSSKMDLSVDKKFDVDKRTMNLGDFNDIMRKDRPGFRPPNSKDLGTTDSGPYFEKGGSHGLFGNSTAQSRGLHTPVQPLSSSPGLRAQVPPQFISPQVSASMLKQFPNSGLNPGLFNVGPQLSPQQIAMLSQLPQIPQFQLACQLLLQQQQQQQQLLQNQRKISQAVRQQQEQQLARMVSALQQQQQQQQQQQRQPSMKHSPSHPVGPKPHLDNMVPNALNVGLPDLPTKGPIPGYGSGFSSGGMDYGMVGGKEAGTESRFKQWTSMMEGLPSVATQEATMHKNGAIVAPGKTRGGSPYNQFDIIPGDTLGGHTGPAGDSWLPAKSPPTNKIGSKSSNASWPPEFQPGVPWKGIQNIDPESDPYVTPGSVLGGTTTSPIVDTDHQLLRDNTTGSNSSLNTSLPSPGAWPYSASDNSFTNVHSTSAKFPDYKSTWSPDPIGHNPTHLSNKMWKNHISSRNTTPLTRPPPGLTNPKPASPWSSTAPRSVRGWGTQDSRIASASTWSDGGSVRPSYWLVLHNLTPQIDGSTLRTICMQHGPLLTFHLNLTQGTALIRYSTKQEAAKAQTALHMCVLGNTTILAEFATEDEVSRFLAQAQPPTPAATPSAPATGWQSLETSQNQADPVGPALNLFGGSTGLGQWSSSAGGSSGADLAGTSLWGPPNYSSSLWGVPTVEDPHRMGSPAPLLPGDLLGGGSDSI

Protein argonaute-2 (Homo sapiens), Q9UKV8 F470V;F505V
disrupting interaction: all assays above

Reference: IntAct's records for PubMed 19838187
